From patent US8871276B2, “Beta-casein assemblies for mucosal delivery of therapeutic bioactive agents” (Technion Research and Development Foundation Ltd., priority 2008, dated 2014)

Experiments:
Format in all cases: physicochemical
[1] = Storage stability / appearance of suspensions and lyophilized powder; settings: stored at 4 °C, neutral pH
Method: Bovine β-casein (>90%; Sigma-Aldrich) was dissolved in pH 7.0 hepes buffer containing 200 mM hepes (MP Biomedicals), 10 mM MgCl2 (Sigma-Aldrich), 20 mM EGTA (Sigma-Aldrich) and 10 mM NaCl (Loba Chemie), and was placed over-night at 4° C. under stirring. The protein solutions were prepared at concentrations ranging from 0.5 to 2 wt % (0.21 to 0.83 mM respectively), and were filtered through a porous membrane of 0.45 μm to avoid large protein aggregates. […] Stirring continued for 30 minutes in room temperature. […] The specimens remained stable i.e., no precipitation was observed, for at least 3 weeks at 4° C.
Protein and protein-drug solutions were lyophilized by freezing in liquid nitrogen followed by drying in a Christ Alpha 1-4 lyophilizer for 24 hours. The specimens were stored in 4° C. until re-suspension in hepes buffer, back to the original concentration (0.5 wt % or 2 wt %), or to a higher concentration of 5 wt %. Re-suspension was performed by weighing the powder, adding a measured amount of buffer and stirring for 30 minutes in room temperature.
The lifetime of the drug-loaded complexes increased to at least 3 weeks at the same temperature. Stability of the assemblies remains when they were transferred to room temperatures. […] This process provided increased stability of the loaded micelles in a dry powder form, for at least 6 months.

[2] = Analytical ultracentrifugation (sedimentation equilibrium)
Method: Sedimentation equilibrium experiments were performed at 24° C. using a Beckman Optima XL-A (Palo Alto, Calif.) analytical centrifuge at 6,000, 10,000, and 12,000 rpm for the low-pH solutions and at 4,000, 6,000, and 8,000 rpm for the pH 7.0 solutions. Data were collected at 280 nm. The β-casein solutions were studied at concentrations ranging from 0.2 to 10.0 mg/mL at pH 2.6 and from 0.2 to 2 mg/mL at pH 7.0 and an ionic strength of 0.1. […] The average apparent molecular weight of the micelles at the various protein concentrations was calculated following methods well known in the art (The partial specific volume νj of the solute was taken to be […], and a solution density F of 1.0044 g/cm^3 was measured). At β-casein concentrations of 2 mg/mL and above under low pH conditions, the plot of the natural logarithm of the measured absorbance versus the square of the radius from the axis of rotation was not linear. To estimate Nagg, the limiting slope toward the outer edge of the sample cell was used to provide d ln(c)/dr^2. The molecular weight calculated using this slope was divided by the monomer molecular weight calculated from the β-casein amino acid sequence (24,000).
To determine the aggregation number of the micelles at pH 2.6, analytical ultracentrifugation experiments were conducted at various protein concentrations and at […] and IS of 0.002. Sample data are plotted in FIG. 7, showing data with the protein concentration at 5 mg/ml, and ionic strength (IS) of 0.002. […] The aggregation numbers calculated from the slope of this line confirmed that the protein is monomeric at these concentrations. At concentrations higher than the CMC, two regions could be defined, indicating the presence of two protein populations: monomers at relatively short radii (i.e., in FIG. 7 at r<6.5 or r2<43) and assemblies at large radii. The micelles at pH 2.6 are characterized by a small aggregation number of 3 around the CMC and 6 at higher concentrations. In contrast, Nagg of 20 was measured at pH 7.0 and ionic strength 0.1. […]

[3] = Dynamic light scattering (DLS) size distribution
Method: DLS and Zeta potential measurements performed on a combined DLS and zeta potential analyzer (Nicomp 380 ZLS zeta potential/particle sizer, USA), at 25° C. were performed for size distribution and electrostatics characterization. For DLS measurements the scattered light intensity was detected with an Avalanche Photo Diode (APD) detector, used at a fixed angle of 90°. Laser wavelength was 658 nm, operating at 90 mW. Mono- bi- or tri-modal distributions were calculated from the scattered light intensity fluctuations, by Nicomp™ cumulants analysis of the intensity autocorrelation function. Zeta potential measurements were performed in triplicate.

[4] = Density measurements of β-casein solutions (density meter DMA 5000); settings: 20 mg/ml β-casein, pH 2.6, lactic acid solution
Method: The specific gravity of the solvents and the protein solutions was measured by a density meter DMA 5000 from Anton-Paar at various temperatures. These measurements enabled an accuracy of six digits.
Density measurements of the β-casein solutions at pH 2.6 as a function of temperature are summarized in Table 1 Density measurements were performed using a density meter DMA 5000 from Anton-Paar, reaching an accuracy of six digits.

[5] = 0.5% β-casein, empty or loaded 1:8 celecoxib, pH ~7

B1: β-casein: bovine β-casein self-assembled into unloaded micelles in acidic or neutral buffer (protein, UniProt P02666 16-224, looked up)
Beta-casein: RELEELNVPGEIVESLSSSEESITRINKKIEKFQSEEQQQTEDELQDKIHPFAQTQSLVYPFPGPIPNSLPQNIPPLTQTPVVVPPFLQPEVMGVSKVKEAMAPKHKEMPFPKYPVEPFTESQSLTLTDVENLHLPLPLLQSWMHQPHQPLPPTVMFPPQSVLSLSQSKVLPVPQKAVPYPQRDMPIQAFLLYQEPVLGPVRGPFPIIV
modifications: self-assembled micelles
notes: bovine β-casein self-assembled into unloaded micelles in acidic or neutral buffer
- Lifetime of empty micelles on storage [1]: degraded within a few days
- Aggregation number (ultracentrifugation) ([2]; pH 2.6, around the CMC): 3
- Aggregation number (ultracentrifugation) ([2]; pH 2.6, concentrations higher than the CMC, 24-25 °C): 6
- Nagg (ultracentrifugation) ([2]; pH 7.0, ionic strength 0.1): 20
- Micelle diameter (DLS), after lyophilization and re-suspension [3, 5]: 21 nm
- Micelle diameter (DLS), before drying [3, 5]: 19 nm
- Micelle diameter (DLS) ([3]; 2 wt % β-casein, empty or loaded 1:1 budesonide, hepes buffer pH 7.0): 19.6±3.4 nm
- Solution density ([4]; 4 °C): 1.01 g/mL
- Solution density ([4]; 16 °C): 1.009 g/mL
- Solution density ([4]; 25 °C): 1.007 g/mL
- Solution density ([4]; 40 °C): 1.002 g/mL
